Test results reported in article PMC7255693 (2020).

T1: CapZ peptide (TAMRA-TRTK) 265-276 (Homo sapiens, UniProt P52907, not fully specified)
T1 chain: {TAMRA}-TRTKIDWNKILS-NH2


What was measured:
[1] = target: T1, CapZ peptide (TAMRA-TRTK) 265-276; assay: fluorescence polarization titration
[2] = target: HDM4 peptide (TAMRA-HDM4 25-43) 25-43 (Homo sapiens), O15151

Row | Kd [1] [µM] | Kd [2] [µM] | Binder
1 | 0.13 |  | S100B (protein) SELEKAMVALIDVFHQYSGREGDKHKLKKSELKELINNELSHFLEEIKEQEVVDKVMETLDNDGDGECDFQEFMAFVAMVTTACHEFFEHE
2 |  | 3.67 | S100A1, P23297 (protein) MGSELETAMETLINVFHAHSGKEGDKYKLSKKELKELLQTELSGFLDAQKDVDAVDKVMKELDENGDGEVDFQEYVVLVAALTVACNNFFWENS
